Target: DS protein (Dengue-HBsAg fusion: EDIII of DENV-1, -3, -4 and -2 joined in tandem to the HBV S antigen) (dengue virus 1 (West Pac-74) | dengue virus 3 (H87/56) | dengue virus 4 (H241-P) | dengue virus 2 (PR159-S1/69) | hepatitis B virus (adw serotype))
Assay: densitometry of a Western blot of the purified VLPs; Western blot of purified DSV4 developed with anti-S mAb 5S; ratio from the peak areas of DS, S and S dimer (ImageJ)

Substance: Hepatitis B virus surface (S) antigen, unfused (natural protein)
- stoichiometry N: 4 S per DS
